Experimental data: the nanobody polyreactivity screen of Harvey et al. (2022)

Assay: yeast display, Sf9 membrane polyspecificity reagent, FACS + sequencing; frameworks hold sequencing errors
Outline: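 Galactose induction of a Saccharomyces cerevisiae BJ5465 synthetic nanobody display library ran 36–48 hours. The cells were then stained for 1 hour at 4 °C with 10% biotinylated, detergent-solubilized Sf9 membrane reagent, pulled down on streptavidin microbeads and FACS-sorted into low and high (top ~1%) gates on expression and reagent-binding fluorescence. Labels for polyreactivity follow the gate of origin.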

Row | Sequence | polyreactivity (PSR sort gate)
1 | QLQLVESGGGLVQAGGRLRLSCASSGSTFHSYVMGWYRPAPGKERELVAAITSRGGSTNYADSVKGRFTISRENAKNTVYLHMNSLKPEDTAVYYCAADGYWGWSYFRYDYLGQGTQVTVSS | low polyreactivity
2 | QVQLVESGGVLVQAGGSIRLTCAASGFTFSHYAMGWYRQAPGKERELVAAIRYSRASTYYADSVKGRFTISRYNAKNTVYLQMISVKPEDTSVYYCARPWWWAHHYDYDYWGQGSQVTVSS | low polyreactivity
3 | QDQLVESGGGLVQAGGSLRLSCAASGSTLVKYAMGWYRQAPGKERELVARITLNGGRTYYADSVKGRFTISRDNAKNTVYLQMNSLKPVDTAVYYCAKSLPHSTSRDYWGQGTQVTLSS | low polyreactivity
4 | QVQLVESGGGLVQAGGSLRLSCAASGRIFFPYAMGWYRQAPGKERELVAAINYSGGSTYYADSVKGRFTISRDNAKYTVYLQMNSLKPEDTAVYYCAKEYGKAYDYWGQGTLVTVSS | high polyreactivity
5 | QVQLVESGGGLVQAGGSLRLSCAASGSIFYAYAMGWYRQAPGKERELVAAISSDGSTYYADSVKGRFTISRDNAKNTVYLQMTSLKPEDTAVYYCAASVLAPNAVSGSDYWGQGTQVTVSS | low polyreactivity
6 | QVKLVESGGGLVQAGGSLRLSCAASGRNFYVYGMGWYRQAPGKERELVASITYRCGSTSYADSVKGRFTISRDNAKNTVYLQMNSLKPEDTAVYYCNADTYYRSDYWGQGTQVTVSS | high polyreactivity
7 | QVQLVESGGGLVQAGGSLRLSCAASGIIFFDYAMGWYRQAPGKERELVAAITGSGGRTYYADSVKGRFTISRDNAKNTVYLQMNSLKPEDTAVYYCAAARYYYGGDYWGQGTQVTVST | high polyreactivity
8 | QVQLVESGGGLVQAGGSLRLSCAASGLISDRNAMGWYRQAPGKERELVASIRSGGSTYYADSVKGRFTISRDNAKNTVYLQMNSQKPEDTAVYYCAAGGGHTPVSYYLVPYMDYWGQGTQVTVSS | low polyreactivity
9 | QVQLVESGGGIVQAGGSLRLSCAASGRNSNRYAMGWYRQAPGKEREFVAAISKSGTSTYYADSVKGRFTISRDNAKNTVYLQMNSLKPEDTAVYYGAAKTGVGLRVNSGIGFYYWGQGTQVTVSS | high polyreactivity
10 | QVQLVESGGGLVQAGGSLRLSCAASGRTFSHNAMGWYRQAPGKERELVAAISRGGGTNYADSVKGRFTISRDNAKNTVYLQMNSLKPEDTAVYYCAAAGYDSNGRYYYWGQGTQVTVSS | high polyreactivity
11 | QVQLVESGRGLVQARGSLRLSCAASGFIFYRYAMGWYRQAPGKEREFVAANTSTGTTYYADSVKGRFTISRDNAKNTVYLQMNSLKPEDTAVYYCNAGFRYKYQSSRVDYWGQGTQVTVSS | high polyreactivity
12 | QVQLVESGGGLVQAGGSLRLSCAASGFIFYQYAKGWYRQAPGKERELVATISFRGGRTYYADSVKGRFTITRDTAKNTVYLQMNSLKPDETAVYYCNAKRVSSRFYKWDYYWGQGTQVTVSS | high polyreactivity
13 | QVQIVESGGGLVQAGGSLRLSCAASGNTISYYDMGWYRQAPGKERELVADISSGGSTYYADSLKGRFTISRDNAKNTVYLQMNSLKPEDTAVYYCNAVVYIRGTAGTYYYWGQGTQVTVSS | high polyreactivity
14 | QVQLVESGGGLVQAGGSLRLSCAASGRIFYYNVMGWYRQAPGKERELVAAITWSGGSTYYADSVKGRFTISRDNAKNTVYLQMNSLKPEDTAVYYCAAKFSKWTLKKYYYWGQGTQVTVSS | high polyreactivity
15 | QVQLVESGGGLVQAGGSLRLSCAASGITFDYYAMGWYRQAPGKERELVAAITSRGGSTYYADSVKGRFTISRDNAKNTVYLQMNSLKPEDTAVYYCAAVRSGYYNYWGQGTQVTVSS | high polyreactivity
16 | QVQLVESGGRLFQAGGSLRLSCAACGFTIPYYAMRWYRKAPGKERELVAAIDWTGGSTYYADSVKGRFTISRDKAKNTVYLQMNSRKPEETEVYYCAREVDYSISSPTPPVVELDYWGQGTQVTVSS | low polyreactivity
17 | QVQLEESGGGLVQAGGSLRLSCAASGSTFYPNAMGWYRQAPGKERELVAAISQRGGRKYYADSVKGRFTISRDNAKNTVYLQMNSLKPEDTAVYYCAATYQGYNSWYSFGYWGQGTQVTVSS | high polyreactivity
18 | PVQLVESGGGLVQAGGRLRLSCAASGIIFSDYAMGWYRQAPGKERELVAAIPGGGSTYYADSVKGRFTISRDNAKNTVYLQMNSLKPEDTAVYYCNADWARLWIRSTEVDYWGQGTQVTVSS | low polyreactivity
19 | QVQLVESGGGLVQAGGSLRLSCAASGSIFGKYVMGWYRQAPGKERELVAALTFGGGSTYYADSVKGRFTISRDNAKNTVSLQMNTLKPEETAVYYCAAKSYDDRLYRRPRDYWGQGTQVTLSS | high polyreactivity
20 | QVQLVESGGGLVQAGGSLRLSCAASGRIFNYNAIGWYRQAPGKERELVAAITCSGGSTYYADSVKGRFTISRDNAQYNVYLQMNSLKPEDTAVYYCIALITYSSDYWGQGTQVTVSS | low polyreactivity
21 | QVQLVESGGGLVQAGGSLRLSCAASGFTFPDYAMGWYRQAPAKERELVAVITSGGSTYYADSVKGRFTISRDNAKNTVYLQMNSLKPEDTAVYYCATDFWDDDVEQRYDYWGQGTQVTVSS | low polyreactivity
22 | QVQLVESGGGLVQAGGSLRLSCAASGAIFDWYAMGGDRPAPGKERELVADITWSGDSTYYADSVKGRFTISRDHAKNTVYLKMNSLKPEDTAVFYCAADIWFYTYYEYDYWGQGTQVTVSS | high polyreactivity

Row | Sequence | polyreactivity (PSR sort gate)
23 | QVQLVESGGGLVQAGGSLRLSCAASGSIIRGNAMGWYRQAPGKERELVAAISGSGGSTYYADSVKGRFTISRDNAKNTVYLQMNSLKPEDTAVYYCAARYVTSIYAYYYWGQGTQVTVSS | high polyreactivity
24 | QVQLLESGGGLVQAGGSLRLICSASGRTFSGYALGWYRHSPGRERELVAAITSSGSSKYYADSVKGRFTISRDKAKYTVYLQMKSLKPEDTAVYYCAATPQAHSEPYFYQRKYDFWGEGTQVTVSS | low polyreactivity
25 | QDQLVESGGGLVQAGGSLRLSCASSGSTFVRYAMGWYRQAPGKERELVATISKSGGSTSYADSVKGRFTISRDNAKNTVYLQMNSLKPEDTAVYYCAADFLYIWAIFDYWGQGTQVTVSS | low polyreactivity
26 | QVQLVESGGGLVQAGGSLRLSCAASGRIFSNNAMGWYRQAPGKERELVAASNRSGDGTYYADSVKGRFTSSRDHAKNTVYLQMNSLKPEDTAVYYCAVRYYWGYTSYGYWGQGTQVTVSS | high polyreactivity
27 | QVQLVESGGGLVQAGGSLRLSCAASGSTIPRHAMGWYRQAPGKERELVAAITSGGSTNYADSVKGRFTISRDNAKNTVYLQMNSLKPEDTAVYYCAADVIVRVYYYYYVLMDYWGQGTQVTVSS | low polyreactivity
28 | QVQLVESGGGLVQAGGSLRLSCAASGFTFARYSMGWYRQAPGKERELVAAISRGGDSTYYADSVKGRFTISRDNAKNTVYLQMNSLKPEDSAVYYCAADISHRGYREYYSWGQGTQVTVSS | high polyreactivity
29 | QVHLVESGGGLVQAGGSLRLSCAASGRTIAAYAMGWYRQAPGKERELVAAISRSGGSTYYADSVKGRFTISRDNAKNTVYLQMNSLKPEDTAVYYCAAQRQYGKFDYWGQGTQVTVSS | high polyreactivity
30 | QVQLVESGGGLVQAGGSLRLSCAASGRIFALNVMGWYRQAPGKERELVAAITWSSGRTYYADSVKGRFTISRDNAKNTVYLQMNSLKPEDTAVYYCAAAFRPRAIELSYYYWGQGTQVTVSS | high polyreactivity
31 | QVQLVESGGGLVQAGGSLRLSCAASGSIFVRYAMGWYRQAPGKERELVAVISSDGRTYYADSVKGRFTISRDNAKNTVYLQMNSLKPEDTAVYYCAKRAWGFGGYDYWGQGTQVTVSS | low polyreactivity
32 | QVQLEESGGGLVQAGVSLRLSCAASGSTFSLYAMGWYRPAPGKERELVAAISSGGRTNYADSVKGRFTISRDNAKKTVYLQMNSLKPEDTAVYYCAARIQWPTWSLYYYWGQGTQVTVSS | high polyreactivity
33 | QVQLVESGGGLVQAGGSLRLSCAASGRTFYYNPMGWYRQAPGKERELVAAITQSGGRTYYADSVKGRFTISRDNAKNTVYVQMNSVKPEDSAVYYFYAVRPVRGYIYQGYNYWGQGTQVTVSS | high polyreactivity
34 | QVQLVESGGGLVQAGGSLRLSCASSGSTFWPNAMGWYRQAPGKERELVAAITGGGGTNYADSVKGRFTISRDNAKNTVYLQMNSLKPEDTAVYYCAAKKVNSRSHVKYYYWGQGTQVTVSS | high polyreactivity
35 | QVQLVESGGGLVQAGGSLRLSCAASGFTFLYYDMGWYRQAPGKERELVAAITSSGTSTYYADSVKGRFTISRDNAKNSVYLQMNSLKPEDTAVYYCAVMYTYAGRHRYGYWGQGTQVTVSS | high polyreactivity
36 | QVQLVESGGGLVQAGGSLRLSCAASGIIFALYAMGWYRQAPGKERELVATITYSGGSTYYADSVKGRFTISRDNAKNTVYLQMNSLKPEDTAVYYCAADYYILRWRQTNDYWGQGTQVTVSS | low polyreactivity
37 | QFQLEESGGGLVQAGGSLRLSCAASGPIFSYNAMGLSRQATGKERELVARINWSSGRTYYADSVKGRFTISRDNAKNTVYLQMNSLKPEDTAVYYCNRVSRGPVGGYYWGQGTQVTESS | high polyreactivity
38 | QVQLVESGGGLVQAGGSLRLICAASGIIFQAYTMGWSRQAPGKERELVAAISYSGGSTYYADSVKGRFTISSDNAKNSVYLEMKSLKPEDTAVYYCARRSRYLWRYDYWGQGTQVTVSA | high polyreactivity
39 | QVQLVESGGGLVQAGGSLRLSCSASGFIFGKYAMGRYRQAPGKERELVAAISKSGGSTYYADSVKGRFTISRDNAKNTVYLQMNSLKPEDTAVYYCDARSLGHYGSWGQGTQVTVSS | high polyreactivity
40 | QVQLVESGGGLVQAGGSLRISCAASGLTFNAYAMGWYRQAPGKERELLADITTSDGSTFYADSVKGRFTISRDKATNTVYLQMNSLKPEDTAVYYCNADAYGWYSGPWFKWLLWYDYWGQGTQVTVSS | low polyreactivity
41 | QVQLQESGGGLVHPGGSLRLSCAASCSISHYIFMGWYRQAPGKEREFVAGIGYGGTTNYADSVKGRFTISRDNAKNTVYLQMNSLKPEDTAMYYCAAREATEFYLYYWGQGTQVTVSS | low polyreactivity
42 | QVQLEESGGAFVQAGGSLRLSCAASGFIFVPYSMGWYREAPGKEREFVAAITASGGNTYYADSVKGRFSISRDNAKNTVYLQMNSVKPEDTAVYYCAADISGSLESLDYWGQGTQVTGSS | low polyreactivity
43 | QVQLVESGGGLVQAGGSLRLSCAASGSTFKYNAMGWYRQAPGKERELVAAITRGGRTYYADSVKGRFTISRDNAKNTVYLQMNSLKPEDTAVYYCAAKWLGTAGDDYWGQGTQVTVSS | high polyreactivity
